Results as given in patent US20250304643A1 (BAINAN BIOTECH, published 2025).
[ ]: non-standard residue; d: D form. The star is where a group is joined. C16 diacid = O=C(O)CCCCCCCCCCCCCCC(=O)*; Palmitoyl = CCCCCCCCCCCCCCCC(=O)*; Aib = CC(C)(N)C(=O)O

T1: human glucagon-like peptide-2 receptor (human, UniProt O95838 1-553)
T1 sequence (looked up): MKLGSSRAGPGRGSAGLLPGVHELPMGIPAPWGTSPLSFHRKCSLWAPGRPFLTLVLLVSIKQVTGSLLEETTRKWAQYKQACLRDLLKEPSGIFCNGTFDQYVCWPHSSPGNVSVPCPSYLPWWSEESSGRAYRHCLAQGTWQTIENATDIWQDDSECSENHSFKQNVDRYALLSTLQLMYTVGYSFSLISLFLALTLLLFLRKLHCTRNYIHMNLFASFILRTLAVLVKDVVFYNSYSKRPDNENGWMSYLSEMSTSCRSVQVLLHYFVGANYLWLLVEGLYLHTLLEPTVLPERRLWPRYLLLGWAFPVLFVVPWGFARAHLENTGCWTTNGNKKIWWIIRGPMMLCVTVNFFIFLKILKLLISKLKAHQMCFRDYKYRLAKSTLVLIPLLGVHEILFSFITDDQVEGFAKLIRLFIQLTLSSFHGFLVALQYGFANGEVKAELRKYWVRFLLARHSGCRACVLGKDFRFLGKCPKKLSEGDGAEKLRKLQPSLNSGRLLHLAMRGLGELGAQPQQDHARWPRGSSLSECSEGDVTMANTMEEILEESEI

T2: human glucose-dependent insulinotropic polypeptide receptor (human, UniProt P48546 22-466)
T2 sequence (looked up): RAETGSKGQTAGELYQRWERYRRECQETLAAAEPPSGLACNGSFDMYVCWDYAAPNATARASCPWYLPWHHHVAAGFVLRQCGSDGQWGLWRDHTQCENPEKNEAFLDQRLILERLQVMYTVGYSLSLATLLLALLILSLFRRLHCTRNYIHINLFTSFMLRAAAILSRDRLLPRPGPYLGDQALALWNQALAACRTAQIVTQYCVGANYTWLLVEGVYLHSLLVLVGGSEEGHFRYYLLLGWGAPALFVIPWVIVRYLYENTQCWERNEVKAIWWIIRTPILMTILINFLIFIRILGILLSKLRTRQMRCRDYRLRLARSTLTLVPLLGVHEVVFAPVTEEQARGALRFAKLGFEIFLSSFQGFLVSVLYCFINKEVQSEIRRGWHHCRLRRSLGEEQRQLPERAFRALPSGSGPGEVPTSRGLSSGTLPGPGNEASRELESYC

B1: Compound no. 17 (peptide)
peptide: {C16 diacid}-H[Aib]DGTFISDYST[Aib]LDNLAARDFINWLIQTKITK-OH
SMILES: CC[C@H](C)[C@H](NC(=O)[C@H](Cc1ccccc1)NC(=O)[C@H](CC(=O)O)NC(=O)[C@H](CCCNC(=N)N)NC(=O)[C@H](C)NC(=O)[C@H](C)NC(=O)[C@H](CC(C)C)NC(=O)[C@H](CC(N)=O)NC(=O)[C@H](CC(=O)O)NC(=O)[C@H](CC(C)C)NC(=O)C(C)(C)NC(=O)[C@@H](NC(=O)[C@H](CO)NC(=O)[C@H](Cc1ccc(O)cc1)NC(=O)[C@H](CC(=O)O)NC(=O)[C@H](CO)NC(=O)[C@@H](NC(=O)[C@H](Cc1ccccc1)NC(=O)[C@@H](NC(=O)CNC(=O)[C@H](CC(=O)O)NC(=O)C(C)(C)NC(=O)[C@H](Cc1c[nH]cn1)NC(=O)CCCCCCCCCCCCCCC(=O)O)[C@@H](C)O)[C@@H](C)CC)[C@@H](C)O)C(=O)N[C@@H](CC(N)=O)C(=O)N[C@@H](Cc1c[nH]c2ccccc12)C(=O)N[C@@H](CC(C)C)C(=O)N[C@H](C(=O)N[C@@H](CCC(N)=O)C(=O)N[C@H](C(=O)N[C@@H](CCCCN)C(=O)N[C@H](C(=O)N[C@H](C(=O)N[C@@H](CCCCN)C(=O)O)[C@@H](C)O)[C@@H](C)CC)[C@@H](C)O)[C@@H](C)CC
B2: Compound no. 19 (peptide)
peptide: {C16 diacid}-H[Aib]EGTFISDYST[Aib]LDNLAARDFINWLIQTKITK-OH
SMILES: CC[C@H](C)[C@H](NC(=O)[C@H](Cc1ccccc1)NC(=O)[C@H](CC(=O)O)NC(=O)[C@H](CCCNC(=N)N)NC(=O)[C@H](C)NC(=O)[C@H](C)NC(=O)[C@H](CC(C)C)NC(=O)[C@H](CC(N)=O)NC(=O)[C@H](CC(=O)O)NC(=O)[C@H](CC(C)C)NC(=O)C(C)(C)NC(=O)[C@@H](NC(=O)[C@H](CO)NC(=O)[C@H](Cc1ccc(O)cc1)NC(=O)[C@H](CC(=O)O)NC(=O)[C@H](CO)NC(=O)[C@@H](NC(=O)[C@H](Cc1ccccc1)NC(=O)[C@@H](NC(=O)CNC(=O)[C@H](CCC(=O)O)NC(=O)C(C)(C)NC(=O)[C@H](Cc1c[nH]cn1)NC(=O)CCCCCCCCCCCCCCC(=O)O)[C@@H](C)O)[C@@H](C)CC)[C@@H](C)O)C(=O)N[C@@H](CC(N)=O)C(=O)N[C@@H](Cc1c[nH]c2ccccc12)C(=O)N[C@@H](CC(C)C)C(=O)N[C@H](C(=O)N[C@@H](CCC(N)=O)C(=O)N[C@H](C(=O)N[C@@H](CCCCN)C(=O)N[C@H](C(=O)N[C@H](C(=O)N[C@@H](CCCCN)C(=O)O)[C@@H](C)O)[C@@H](C)CC)[C@@H](C)O)[C@@H](C)CC
B3: Compound no. 20 (peptide)
peptide: {C16 diacid}-H[Aib]DGTFISDYST[Aib]LDALAARDFIEWLIQTKITK-OH
SMILES: CC[C@H](C)[C@H](NC(=O)[C@H](Cc1ccccc1)NC(=O)[C@H](CC(=O)O)NC(=O)[C@H](CCCNC(=N)N)NC(=O)[C@H](C)NC(=O)[C@H](C)NC(=O)[C@H](CC(C)C)NC(=O)[C@H](C)NC(=O)[C@H](CC(=O)O)NC(=O)[C@H](CC(C)C)NC(=O)C(C)(C)NC(=O)[C@@H](NC(=O)[C@H](CO)NC(=O)[C@H](Cc1ccc(O)cc1)NC(=O)[C@H](CC(=O)O)NC(=O)[C@H](CO)NC(=O)[C@@H](NC(=O)[C@H](Cc1ccccc1)NC(=O)[C@@H](NC(=O)CNC(=O)[C@H](CC(=O)O)NC(=O)C(C)(C)NC(=O)[C@H](Cc1c[nH]cn1)NC(=O)CCCCCCCCCCCCCCC(=O)O)[C@@H](C)O)[C@@H](C)CC)[C@@H](C)O)C(=O)N[C@@H](CCC(=O)O)C(=O)N[C@@H](Cc1c[nH]c2ccccc12)C(=O)N[C@@H](CC(C)C)C(=O)N[C@H](C(=O)N[C@@H](CCC(N)=O)C(=O)N[C@H](C(=O)N[C@@H](CCCCN)C(=O)N[C@H](C(=O)N[C@H](C(=O)N[C@@H](CCCCN)C(=O)O)[C@@H](C)O)[C@@H](C)CC)[C@@H](C)O)[C@@H](C)CC
B4: Compound no. 21 (peptide)
peptide: {C16 diacid}-H[Aib]EGTFISDYST[Aib]LDKLAARDFINWLIQTKITK-OH
SMILES: CC[C@H](C)[C@H](NC(=O)[C@H](Cc1ccccc1)NC(=O)[C@H](CC(=O)O)NC(=O)[C@H](CCCNC(=N)N)NC(=O)[C@H](C)NC(=O)[C@H](C)NC(=O)[C@H](CC(C)C)NC(=O)[C@H](CCCCN)NC(=O)[C@H](CC(=O)O)NC(=O)[C@H](CC(C)C)NC(=O)C(C)(C)NC(=O)[C@@H](NC(=O)[C@H](CO)NC(=O)[C@H](Cc1ccc(O)cc1)NC(=O)[C@H](CC(=O)O)NC(=O)[C@H](CO)NC(=O)[C@@H](NC(=O)[C@H](Cc1ccccc1)NC(=O)[C@@H](NC(=O)CNC(=O)[C@H](CCC(=O)O)NC(=O)C(C)(C)NC(=O)[C@H](Cc1c[nH]cn1)NC(=O)CCCCCCCCCCCCCCC(=O)O)[C@@H](C)O)[C@@H](C)CC)[C@@H](C)O)C(=O)N[C@@H](CC(N)=O)C(=O)N[C@@H](Cc1c[nH]c2ccccc12)C(=O)N[C@@H](CC(C)C)C(=O)N[C@H](C(=O)N[C@@H](CCC(N)=O)C(=O)N[C@H](C(=O)N[C@@H](CCCCN)C(=O)N[C@H](C(=O)N[C@H](C(=O)N[C@@H](CCCCN)C(=O)O)[C@@H](C)O)[C@@H](C)CC)[C@@H](C)O)[C@@H](C)CC
B5: Compound no. 22 (peptide)
peptide: {C16 diacid}-H[Aib]DGTFISDYST[Aib]LDKLAARDFIEWLIQTKITK-OH
SMILES: CC[C@H](C)[C@H](NC(=O)[C@H](Cc1ccccc1)NC(=O)[C@H](CC(=O)O)NC(=O)[C@H](CCCNC(=N)N)NC(=O)[C@H](C)NC(=O)[C@H](C)NC(=O)[C@H](CC(C)C)NC(=O)[C@H](CCCCN)NC(=O)[C@H](CC(=O)O)NC(=O)[C@H](CC(C)C)NC(=O)C(C)(C)NC(=O)[C@@H](NC(=O)[C@H](CO)NC(=O)[C@H](Cc1ccc(O)cc1)NC(=O)[C@H](CC(=O)O)NC(=O)[C@H](CO)NC(=O)[C@@H](NC(=O)[C@H](Cc1ccccc1)NC(=O)[C@@H](NC(=O)CNC(=O)[C@H](CC(=O)O)NC(=O)C(C)(C)NC(=O)[C@H](Cc1c[nH]cn1)NC(=O)CCCCCCCCCCCCCCC(=O)O)[C@@H](C)O)[C@@H](C)CC)[C@@H](C)O)C(=O)N[C@@H](CCC(=O)O)C(=O)N[C@@H](Cc1c[nH]c2ccccc12)C(=O)N[C@@H](CC(C)C)C(=O)N[C@H](C(=O)N[C@@H](CCC(N)=O)C(=O)N[C@H](C(=O)N[C@@H](CCCCN)C(=O)N[C@H](C(=O)N[C@H](C(=O)N[C@@H](CCCCN)C(=O)O)[C@@H](C)O)[C@@H](C)CC)[C@@H](C)O)[C@@H](C)CC
B6: Compound no. 23 (peptide)
peptide: {C16 diacid}-H[Aib]DGTFISDYST[Aib]LDKLAARDFINWLIETKITK-OH
SMILES: CC[C@H](C)[C@H](NC(=O)[C@H](Cc1ccccc1)NC(=O)[C@H](CC(=O)O)NC(=O)[C@H](CCCNC(=N)N)NC(=O)[C@H](C)NC(=O)[C@H](C)NC(=O)[C@H](CC(C)C)NC(=O)[C@H](CCCCN)NC(=O)[C@H](CC(=O)O)NC(=O)[C@H](CC(C)C)NC(=O)C(C)(C)NC(=O)[C@@H](NC(=O)[C@H](CO)NC(=O)[C@H](Cc1ccc(O)cc1)NC(=O)[C@H](CC(=O)O)NC(=O)[C@H](CO)NC(=O)[C@@H](NC(=O)[C@H](Cc1ccccc1)NC(=O)[C@@H](NC(=O)CNC(=O)[C@H](CC(=O)O)NC(=O)C(C)(C)NC(=O)[C@H](Cc1c[nH]cn1)NC(=O)CCCCCCCCCCCCCCC(=O)O)[C@@H](C)O)[C@@H](C)CC)[C@@H](C)O)C(=O)N[C@@H](CC(N)=O)C(=O)N[C@@H](Cc1c[nH]c2ccccc12)C(=O)N[C@@H](CC(C)C)C(=O)N[C@H](C(=O)N[C@@H](CCC(=O)O)C(=O)N[C@H](C(=O)N[C@@H](CCCCN)C(=O)N[C@H](C(=O)N[C@H](C(=O)N[C@@H](CCCCN)C(=O)O)[C@@H](C)O)[C@@H](C)CC)[C@@H](C)O)[C@@H](C)CC

Molecular target: T1, human glucagon-like peptide-2 receptor
Assay: cell-based or functional assay

Compared with Palmitoyl-HADGTFISDYSTILELLAARDFINWLIQTKITKNDWKHNITQ-OH [Compound no. 15], Palmitoyl-HADGTFISDYSTILD[Aib]LAARDFINWLIQTKITKNDWKHNITQ-OH [Compound no. 16] is lower in “Efficacy GLP-2R” value: 70% for the first, 64% for the second.

Compared with B1, B2 is lower in “Efficacy GLP-2R” value: 90% for the first, 81% for the second.

Compared with B3, B4 is lower in “Efficacy GLP-2R” value: 88% for the first, 58% for the second.

Compared with B5, B6 is lower in “Efficacy GLP-2R” value: 95% for the first, 86% for the second.

B6 was tested, and the “logEC50 GLP-2R” value was 8.8.

Molecular target: T2, human glucose-dependent insulinotropic …
Assay: cell-based or functional assay

Going from Palmitoyl-HADGTFISDYSTILELLAARDFINWLIQTKITKNDWKHNITQ-OH [Compound no. 15] to Palmitoyl-HADGTFISDYSTILD[Aib]LAARDFINWLIQTKITKNDWKHNITQ-OH [Compound no. 16], the “Efficacy GIPR” value falls from 106% to 99%.

B1 and B2 are the same in “Efficacy GIPR” value: 98% for the first, 98% for the second.

First: B3
Second: B4
The “Efficacy GIPR” value of the first is higher: 93% for the first, 86% for the second.

First: B5
Second: B6
The “Efficacy GIPR” value of the first is lower: 91% for the first, 107% for the second.
